Source: patent US20220047729A1

target: recombinant hPD-L1 hIgG1 Fc-fusion protein (R&D Systems) (human) (UniProt Q9NZQ7); assay: flow cytometry, control HEK 293 cells, one dose of hPD-L1 Fc fusion
Chain of UniProt Q9NZQ7 (Q9NZQ7 19-239 limits assumed): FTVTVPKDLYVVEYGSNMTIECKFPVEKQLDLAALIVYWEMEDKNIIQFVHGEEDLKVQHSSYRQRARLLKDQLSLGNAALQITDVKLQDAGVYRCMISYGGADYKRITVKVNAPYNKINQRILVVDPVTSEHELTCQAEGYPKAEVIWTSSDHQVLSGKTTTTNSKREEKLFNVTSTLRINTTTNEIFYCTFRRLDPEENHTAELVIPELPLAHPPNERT

Question: For Control (row of Table 2), which average binding normalized to wild type (AVE-hPD-L1) (relative to wild type) is on record?
Answer: 0.0144

target: recombinant hPD-L2 hIgG1 Fc-fusion protein (R&D Systems) (human) (UniProt Q9BQ51); assay: flow cytometry, control HEK 293 cells, one dose of hPD-L2 Fc fusion
Chain of UniProt Q9BQ51 (Q9BQ51 20-219 limits assumed): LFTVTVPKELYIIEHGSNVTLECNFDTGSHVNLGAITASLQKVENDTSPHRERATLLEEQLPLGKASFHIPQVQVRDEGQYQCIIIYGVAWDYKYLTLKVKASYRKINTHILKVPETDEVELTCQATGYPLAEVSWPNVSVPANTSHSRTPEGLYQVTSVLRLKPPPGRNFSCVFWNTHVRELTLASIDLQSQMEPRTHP

Question: How did the average binding normalized to wild type (AVE-hPD-L2) (relative to wild type) turn out when Control (row of Table 2) was run?
Answer: 0.00648

target: recombinant hPD-L2 hIgG1 Fc-fusion protein (R&D Systems) (human) (UniProt Q9BQ51); assay: flow cytometry, HEK 293 cells displaying the PD-1 construct, one dose of hPD-L2 Fc fusion, percent of PD-1-positive cells bound

Question: Which average binding normalized to wild type (AVE-hPD-L2) (relative to wild type) does the source give for “human PD-1 mutant D77E (hPD-1 Type I mCherry, on HEK 293 cells) (from UniProt Q15116 25-168) (receptor)” here?
Answer: 1.13

Question: For “human PD-1 mutant E84Y (hPD-1 Type I mCherry, on HEK 293 cells) (from UniProt Q15116 25-168) (receptor)”, which average binding normalized to wild type (AVE-hPD-L2) (relative to wild type) is on record?
Answer: 0.999

Question: With “human PD-1 mutant E136N (hPD-1 Type I mCherry, on HEK 293 cells) (from UniProt Q15116 25-168) (receptor)” as the substance, how does the average binding normalized to wild type (AVE-hPD-L2) (relative to wild type) read?
Answer: 0.82

Question: “human PD-1 mutant E136Q (hPD-1 Type I mCherry, on HEK 293 cells) (from UniProt Q15116 25-168) (receptor)” was tested. Which average binding normalized to wild type (AVE-hPD-L2) (relative to wild type) did it give?
Answer: 0.967

Question: For “human PD-1 mutant G124M (hPD-1 Type I mCherry, on HEK 293 cells) (from UniProt Q15116 25-168) (receptor)”, which average binding normalized to wild type (AVE-hPD-L2) (relative to wild type) is on record?
Answer: 0.705

Question: For “human PD-1 mutant G124V (hPD-1 Type I mCherry, on HEK 293 cells) (from UniProt Q15116 25-168) (receptor)”, which average binding normalized to wild type (AVE-hPD-L2) (relative to wild type) is on record?
Answer: 1.16

Question: “human PD-1 mutant G124Y (hPD-1 Type I mCherry, on HEK 293 cells) (from UniProt Q15116 25-168) (receptor)” was tested. Which average binding normalized to wild type (AVE-hPD-L2) (relative to wild type) did it give?
Answer: 0.557

Question: For “human PD-1 mutant I126V (hPD-1 Type I mCherry, on HEK 293 cells) (from UniProt Q15116 25-168) (receptor)”, which average binding normalized to wild type (AVE-hPD-L2) (relative to wild type) is on record?
Answer: 0.711

Question: For “human PD-1 mutant I134D (hPD-1 Type I mCherry, on HEK 293 cells) (from UniProt Q15116 25-168) (receptor)”, which average binding normalized to wild type (AVE-hPD-L2) (relative to wild type) is on record?
Answer: 0.0105

Question: With “human PD-1 mutant I134F (hPD-1 Type I mCherry, on HEK 293 cells) (from UniProt Q15116 25-168) (receptor)” as the substance, how does the average binding normalized to wild type (AVE-hPD-L2) (relative to wild type) read?
Answer: 1.11

Question: With “human PD-1 mutant I134N (hPD-1 Type I mCherry, on HEK 293 cells) (from UniProt Q15116 25-168) (receptor)” as the substance, how does the average binding normalized to wild type (AVE-hPD-L2) (relative to wild type) read?
Answer: 0.0534

Question: Which average binding normalized to wild type (AVE-hPD-L2) (relative to wild type) does the source give for “human PD-1 mutant I134Q (hPD-1 Type I mCherry, on HEK 293 cells) (from UniProt Q15116 25-168) (receptor)” here?
Answer: 0.0252

Question: “human PD-1 mutant I134T (hPD-1 Type I mCherry, on HEK 293 cells) (from UniProt Q15116 25-168) (receptor)” was tested. Which average binding normalized to wild type (AVE-hPD-L2) (relative to wild type) did it give?
Answer: 0.307

Question: “human PD-1 mutant K78R (hPD-1 Type I mCherry, on HEK 293 cells) (from UniProt Q15116 25-168) (receptor)” was tested. Which average binding normalized to wild type (AVE-hPD-L2) (relative to wild type) did it give?
Answer: 0.125

Question: “human PD-1 mutant K131H (hPD-1 Type I mCherry, on HEK 293 cells) (from UniProt Q15116 25-168) (receptor)” was tested. Which average binding normalized to wild type (AVE-hPD-L2) (relative to wild type) did it give?
Answer: 1.58

Question: “human PD-1 mutant L128V (hPD-1 Type I mCherry, on HEK 293 cells) (from UniProt Q15116 25-168) (receptor)” was tested. Which average binding normalized to wild type (AVE-hPD-L2) (relative to wild type) did it give?
Answer: 1.03

Question: Which average binding normalized to wild type (AVE-hPD-L2) (relative to wild type) does the source give for “human PD-1 mutant L128W (hPD-1 Type I mCherry, on HEK 293 cells) (from UniProt Q15116 25-168) (receptor)” here?
Answer: 1.03

Question: With “human PD-1 mutant N66E (hPD-1 Type I mCherry, on HEK 293 cells) (from UniProt Q15116 25-168) (receptor)” as the substance, how does the average binding normalized to wild type (AVE-hPD-L2) (relative to wild type) read?
Answer: 0.00438

Question: “human PD-1 mutant N66Q (hPD-1 Type I mCherry, on HEK 293 cells) (from UniProt Q15116 25-168) (receptor)” was tested. Which average binding normalized to wild type (AVE-hPD-L2) (relative to wild type) did it give?
Answer: 0.0105

Question: Which average binding normalized to wild type (AVE-hPD-L2) (relative to wild type) does the source give for “human PD-1 mutant Q75N (hPD-1 Type I mCherry, on HEK 293 cells) (from UniProt Q15116 25-168) (receptor)” here?
Answer: 1.13

Question: For “human PD-1 mutant S73K (hPD-1 Type I mCherry, on HEK 293 cells) (from UniProt Q15116 25-168) (receptor)”, which average binding normalized to wild type (AVE-hPD-L2) (relative to wild type) is on record?
Answer: 1

Question: How did the average binding normalized to wild type (AVE-hPD-L2) (relative to wild type) turn out when “human PD-1 mutant S73R (hPD-1 Type I mCherry, on HEK 293 cells) (from UniProt Q15116 25-168) (receptor)” was run?
Answer: 1.11

Question: For “human PD-1 mutant T76D (hPD-1 Type I mCherry, on HEK 293 cells) (from UniProt Q15116 25-168) (receptor)”, which average binding normalized to wild type (AVE-hPD-L2) (relative to wild type) is on record?
Answer: 0.205

Question: How did the average binding normalized to wild type (AVE-hPD-L2) (relative to wild type) turn out when “human PD-1 mutant T76E (hPD-1 Type I mCherry, on HEK 293 cells) (from UniProt Q15116 25-168) (receptor)” was run?
Answer: 0.642

Question: How did the average binding normalized to wild type (AVE-hPD-L2) (relative to wild type) turn out when “human PD-1 mutant T76N (hPD-1 Type I mCherry, on HEK 293 cells) (from UniProt Q15116 25-168) (receptor)” was run?
Answer: 0.998

Question: “human PD-1 mutant T76Q (hPD-1 Type I mCherry, on HEK 293 cells) (from UniProt Q15116 25-168) (receptor)” was tested. Which average binding normalized to wild type (AVE-hPD-L2) (relative to wild type) did it give?
Answer: 0.98

Question: With “human PD-1 mutant T76S (hPD-1 Type I mCherry, on HEK 293 cells) (from UniProt Q15116 25-168) (receptor)” as the substance, how does the average binding normalized to wild type (AVE-hPD-L2) (relative to wild type) read?
Answer: 0.954

Question: Which average binding normalized to wild type (AVE-hPD-L2) (relative to wild type) does the source give for “human PD-1 mutant T76Y (hPD-1 Type I mCherry, on HEK 293 cells) (from UniProt Q15116 25-168) (receptor)” here?
Answer: 1.11

Question: With “human PD-1 mutant Y68K (hPD-1 Type I mCherry, on HEK 293 cells) (from UniProt Q15116 25-168) (receptor)” as the substance, how does the average binding normalized to wild type (AVE-hPD-L2) (relative to wild type) read?
Answer: 0.0223

Question: How did the average binding normalized to wild type (AVE-hPD-L2) (relative to wild type) turn out when “human PD-1 mutant Y68N (hPD-1 Type I mCherry, on HEK 293 cells) (from UniProt Q15116 25-168) (receptor)” was run?
Answer: 0.108

Question: “human PD-1 mutant Y68Q (hPD-1 Type I mCherry, on HEK 293 cells) (from UniProt Q15116 25-168) (receptor)” was tested. Which average binding normalized to wild type (AVE-hPD-L2) (relative to wild type) did it give?
Answer: 0.202

Question: With “human PD-1 mutant Y68R (hPD-1 Type I mCherry, on HEK 293 cells) (from UniProt Q15116 25-168) (receptor)” as the substance, how does the average binding normalized to wild type (AVE-hPD-L2) (relative to wild type) read?
Answer: 0.0334
